T1: IL10 receptor (IL10 receptor subunit alpha IL10Ra and beta subunit IL10Rb) on Ramos/STAT3-Luc and … (UniProt Q13651 22-578; Q08334 20-325, limits assumed)
T1 sequence (looked up) 1: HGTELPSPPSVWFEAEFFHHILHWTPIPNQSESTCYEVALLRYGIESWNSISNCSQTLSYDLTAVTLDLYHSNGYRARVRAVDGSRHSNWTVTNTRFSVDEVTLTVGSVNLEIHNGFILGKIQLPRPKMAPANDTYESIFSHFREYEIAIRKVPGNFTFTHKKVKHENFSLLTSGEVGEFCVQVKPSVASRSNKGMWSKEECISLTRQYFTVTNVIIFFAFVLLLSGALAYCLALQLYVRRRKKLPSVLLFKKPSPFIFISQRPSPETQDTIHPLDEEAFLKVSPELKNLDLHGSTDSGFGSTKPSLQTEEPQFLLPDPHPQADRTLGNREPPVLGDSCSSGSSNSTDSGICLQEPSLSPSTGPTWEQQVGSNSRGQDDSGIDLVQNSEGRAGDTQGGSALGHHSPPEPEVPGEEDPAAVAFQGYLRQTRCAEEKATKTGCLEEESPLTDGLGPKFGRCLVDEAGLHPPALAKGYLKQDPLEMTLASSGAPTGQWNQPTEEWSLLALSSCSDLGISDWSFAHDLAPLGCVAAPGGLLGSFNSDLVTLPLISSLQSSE
T1 sequence (looked up) 2: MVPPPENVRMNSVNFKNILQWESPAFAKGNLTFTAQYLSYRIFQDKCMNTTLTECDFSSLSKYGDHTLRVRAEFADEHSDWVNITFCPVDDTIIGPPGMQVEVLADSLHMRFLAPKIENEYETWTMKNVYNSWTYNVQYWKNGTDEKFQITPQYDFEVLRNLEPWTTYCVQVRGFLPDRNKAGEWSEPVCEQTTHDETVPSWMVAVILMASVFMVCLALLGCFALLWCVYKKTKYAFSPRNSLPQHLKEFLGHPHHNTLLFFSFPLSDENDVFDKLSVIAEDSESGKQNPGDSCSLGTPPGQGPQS


Molecular target: T1, IL10 receptor (IL10 receptor subunit …)
Test: cell-based or functional assay

EC50 of luciferase activity, Ramos/Stat3-Luc reporter cells [pM]	EC50 of luciferase activity, TF-1/Stat3-Luc reporter cells [pM]	Fold Induction of luciferase activity, Ramos/Stat3-Luc reporter cells [fold]	Fold Induction of luciferase activity, TF-1/Stat3-Luc reporter cells [fold]	Binder
127	146	3.81	3.4	IL10M5 (Fc-1XG4S-hIL10; Fc is IgG4s) (Fc fusion) ESKYGPPCPPCPAPPVAGPSVFLFPPKPKDTLMISRTPEVTCVVVDVSQEDPEVQFNWYVDGVEVHNAKTKPREEQFNSTYRVVSVLTVLHQDWLNGKEYKCKVSNKGLPSSIEKTISKAKGQPREPQVYTLPPSQEEMTKNQVSLTCLVKGFYPSDIAVEWESNGQPENNYKTTPPVLDSDGSFFLYSRLTVDKSRWQEGNVFSCSVMHEALHNHYTQKSLSLSLGKGGGGSSPGQGTQSENSCTHFPGNLPNMLRDLRDAFSRVKTFFQMKDQLDNLLLKESLLEDFKGYLGCQALSEMIQFYLEEVMPQAENQDPDIKAHVNSLGENLKTLRLRLRRCHRFLPCENKSKAVEQVKNAFNKLQEKGIYKAMSEFDIFINYIEAYMTMKIRN
115	138	4.06	3.78	IL10M4 (Fc-2XG4S-hIL10; Fc is IgG4s) (Fc fusion) ESKYGPPCPPCPAPPVAGPSVFLFPPKPKDTLMISRTPEVTCVVVDVSQEDPEVQFNWYVDGVEVHNAKTKPREEQFNSTYRVVSVLTVLHQDWLNGKEYKCKVSNKGLPSSIEKTISKAKGQPREPQVYTLPPSQEEMTKNQVSLTCLVKGFYPSDIAVEWESNGQPENNYKTTPPVLDSDGSFFLYSRLTVDKSRWQEGNVFSCSVMHEALHNHYTQKSLSLSLGKGGGGSGGGGSSPGQGTQSENSCTHFPGNLPNMLRDLRDAFSRVKTFFQMKDQLDNLLLKESLLEDFKGYLGCQALSEMIQFYLEEVMPQAENQDPDIKAHVNSLGENLKTLRLRLRRCHRFLPCENKSKAVEQVKNAFNKLQEKGIYKAMSEFDIFINYIEAYMTMKIRN

Reference: patent US12187772 (Regeneron, dated 2025)
